Experimental data taken from the DeepSol protein solubility set.

Assay: soluble on expression in E. coli; label from the status in PepcDB or PDB records

Sequence	soluble on expression in E. coli
MGSDKIHHHHHHMKYRFENHCVDKQCNLHIFADGKAAHSSTPEDGVNAVTHLAALLSPELNDKPWPKTSASLTVAAMNELVGLGIYAEQFGDLAYKDDFMGPLTLAPTVVVQTQKGTEVTINLRRPVGKTPELLAKQAREALALWQDKHQVQLADIESYWGEPMVMKGAPQQQTLLDVFAHFTGIVDPKPVAIGGSTNSKLFPNALSFGPAMPGVEYTGHTEKEFITHKQFMLNLKMYTAAFIELSAVK	not soluble
MGSDKIHHHHHHVSLIQEYKKQQNWRDWERYLESIPYSGEDTVIDLGCSVGDVSQLFSLRVKNVIGIDVNQDFIDICESQKSVNQTFICSDFLSLDSQLIESTNGIWSSFSLSYLRNPLDFLIYLNASMKQGGWIALLDISCFISGNLAKKSQYYEKVLKFELESYKSGIYDFDFGSKMLSMLQNAGFDIVYLDNDVTDPELNFTGAASAEIIHGWAARLNRMNRLKDEIGAEYPDFCNELLANLSSDTHEKRQNVRFIVARKPITSVNKATDSCAGVHSQ	not soluble
ARICDVFSRFDETPLASASVAQVHAACLKTGEEVVVKVVRPGLKPIIGQDLAWLFILARMAERVSADARLLHPVQVVMDYEKTIYDELDLLREAANSSQLRRNFEGSDLLYVPQVYWDWCR	not soluble
MNERLKEKLAVLPEQPGCYLMKDKHGTVIYVGKAKSLKERVRSYFTGTHDGKTQRLVEEIADFEYIVTSSNAEALILEMNLIKKHDPKYNVMLKDDKSY	soluble
MLDHNRLEEFIEQIRLTPAIWKNREFDISREHMNEIWAHFGHTFDISPKEAEMQWEYLIRLHRFMNRNASLEQFRIEVPSLEDDFTPADTLVAESLAIFLKPTLDELLLISKPSETSV	not soluble
PRYTEVTEEQIIVKQIWGQLVFDRKEMEIVPIGKDDLKSSLRTFGNGGLFGYAGYFRNKKLGKYRMYVTRLKDLSLLTDRNGKKTVINLRQV	not soluble
MGSDKIHHHHHHMSREINAGGHHFLYGGISRGVHYWDNKDFSEQSLRLSFGHQNRSVTRSFGTVPFVGQNLLGGSRYNFAGGFNADFSRRLGERWRLTLNAGNMWKHYQEDRTAARYGSHMPLAGATLMYSAPKDRLLYGGADWPHDMTKEAEQASVRKGLRVGAVKTFDGGLGLRANLRYTRRTFDAPGTIVYRFPRKDHEYQANLSLRHDKISWKGFTPQLNFRYLKIGSNMKSFYTRKNTQIFMSVEKDFK	not soluble
SLFAKATRNFLREVDADGDLIAVSNLNDSDKLQLLSLVTKKKRFWCWQRPKYQFLSLTLGDVLIEDQFPSPVVVESDFVKYEGKFANHVSGTLETALGKVKLNLGGSSRVESQSSFGTLRKQEVDLQQLIRDSAERTINLRNPVLQQVLEGRNEVLCVLTQKITTMQKCVISEHMQVEEKCGGIVGIQTKTVQVSATEDGNVTKDSNVVLEIPAATTIAYGVIELYVKLDGQFEFCLLRGKQGGFENKKRIDSVYLDPLVFREFAFIDMPDAAHGISSQDGPLSVLKQATLLLERNFHPFAELPEPQQTALSDIFQAVLFDDELLMVLEPVCDDLVSGLSPTVAVLGELKPRQQQDLVAFLQLVGCSLQGGCPGPEDAGSKQLFMTAYFLVSALAEMPDSAAALLGTCCKLQIIPTLCHLLRALSDDGVSDLEDPTLTPLKDTERFGIVQRLFASADISLERLKSSVKAVILKDSKVFPLLLCITLNGLCALGREHSEG	not soluble
MDEQEFRKQLTLKPVEEEHIDQFNELLSYVFQVTEADIEESGFENKRAFIKSKQPILELSKVFGWFHENQLISQIAIYPCEVNIHGALYKMGGVTGVGTYPEYANHGLMKDLIQTALEEMRQDKQWISYLFPYNIPYYRRKGWEIMSDKLSFKIRDTQLPKTVPVPGMIERLAVDHPDVFDVYARFARQNHGALIRSAFNWEEYWRFENEEERTAAVYYGANQEPLGVLFYWVADEVFHIKEMFYLNQEARNGLWNFITAHFSMVYWVKGDIYKNEPLAFLLEDSQIKESIEPYYMARIVDVKAFLENFPFESTAKPFHFVVKDPVAEWNNGIFGLIWDENDQVTITDEPLGTAVHLDIQTLTCLVMNYRRPSYLHRIERIDTDKETLNSLERIFPDQEAYFSDYF	soluble
MLLNLQKILKKWVICTLPKPNVTFLAIKFFNLKNEFLFFSKFCKKQPKFEILNVSYCSQNFQKYRIQYLNYFKISTFFSIKKSHIQV	not soluble
MGGSHHHHHHGMASALKEKKSQETEVTSTLEQQKICLVLESCLKKNSDEEGSQEKGGDDSQQKFIAHVPVPSQQEIEEALVRRKKMELLQKYASETLQAQSEEARRLLGY	not soluble
MAISIKTPEDIEKMRVAGRLAAEVLEMIEPYVKPGVSTGELDRICNDYIVNEQHAVSACLGYHGYPKSVCISINEVVCHGIPDDAKLLKDGDIVNIDVTVIKDGFHGDTSKMFIVGKPTIMGERLCRITQESLYLALRMVKPGINLREIGAAIQKFVEAEGFSVVREYCGHGIGQGFHEEPQVLHYDSRETNVVLKPGMTFTIEPMVNAGKKEIRTMKDGWTVKTKDRSLSAQYEHTIVVTDNGCEILTLRKDDTIPAIISHDELVPRGSLEHHHHHH	soluble
MNVEQQYIDLFSQTEAMICKHSAEVLNAPRAAAFADFERLGFPTRKMEKYKYTDISKYFEPDYGLNLNRLQIPVNPYEVFKCDVPNMSTALYFVVNDAFYNKALPKTHLPEGVIFGSLKEVAAEHPELVKKYYGKLADTSKDGITAFNTAFAQDGVIFYVPKNVIVEKPIQLVNILRADVNFMVNRRVLIILEDGAQARLLICDHAMDNVNFLATQVIEVFAGENAVFDMYELEETHTSTVRISNLYVKQEANSNVLLNGMTLHNGTTRNTTEVLLAGEGAEINLCGMAIADKNQHVDNNTSIDHAVPNCTSNELFKYVLDDQSTGAFAGLVLVRPDAQHTNSQQTNRNLCATRDARMYTQPQLEIYADDVKCSHGATVGQLDENALFYMRARGIAEKEARLLLMFAFVNEVIDTIRLDALKDRLHLLVEKRFRGELNKCQGCAICK	not soluble
LEAVAPERPRCAYCSAEASKRCSRCQNEWYCCRECQVKHWEKHGKTCVLAAQGDRAK	soluble
MAGEKAQKKGKEKWKEKTWYTVESPPYLGSKEVTVALGEDPESMVNRIVEVPISDLTGNFKKSNEKALFRITGCEGTKCKTIFIGHYIGDDYIRRLVRRRKERIDIIEDVKTSDGSIITVKIVVVSDGKLTNTKKSEIRKALTSFIVSKGSQLSYADFVRYLIGDDSYNDMVEATKNIYPLRKIEIRKSELVSLSGMQEPQKNEPAPGGEAIAQNLEHHHHHH	soluble
MPTERPTTTAPVSLRERRRTAAAREILDAAEQHIGEHGPAALSLRAVARGLGMTVQALYHYFPNRDALVTALITKAYGELSDVLQAAADSVRADPATPRPVAVAEAYRGWGVARPEHFQLLYGTPLRYYAAPAEGPTTQAVRRMGAIFQRELFAGFTPAQLAAAEVPALSPSYREHLEQLPMHAQGDLPPAAASLFLSAWGHVHGLVVLEVFGHTAFLGDHQAEVFRTSVRMMLEDIHRRIPAA	not soluble
MATAVVQRKGYDNVELSLSEDDDPVKEKKKSKGNEKKSSTESKSKESKETSKEEDLAQKKFLMTQKTQSMTEDEKEVKPKAPESQKPKKNSAEESNEKIKKEGSVKVETVASKVKPASSRVPPIASTPGKGSVDGEQKKKSTGCCIIL	soluble
MDLTASLEDDQREKLRQYTEFTHQQDYEVAIGTLASLNWNLEQAIEAHLMQEDKNDDEDPEILETIPAAASGRNAGASSSSRFEPEVINIEDDEMPATRGRRRGRAVTPDETTTVDNQVKRLRIDDGSSSSSNGAATHHRGAAIPRQKRGQATEPTPSSSGSSSASFSSRRGTRANPVPPPNQEPAHPESARQNGGILASRHNNHNNQQNNHHHHHQRIPINPRRVDVFNVDSDEDDDSMAIAYEDDDDGVHEVHHSEVCEKDRAISAFLAPKLGNEVVARGSGPPNGRIPMIPDGFSSVSDALRNFVAIFSDRFCSTPQTQAFMPPFYTEPLPAAVKEAFDHPNSEHRRPLLFYINHDRSIAANIFASQVLCSETVSTLIRHQYVLFPWDITSDSNLMLFLEYLQAANMGDVRTIIQRLAMSKIESFPLMAIVVKERNSYRLVDYCRGTDTSDQVMEKLLSGVSEYSDIRMNEQSERREREEREAIRNQQEAEYKASLAADKARMEAKQQEIEEQRLEEERKLREEEEECVRRQTVASTVPEEPPASAPLAEIINVKFRLPEGGQDMRRFRRLESIQTLINYLSSKGYSPDKFKYFNSDFPKKEITRHFDLSHNFADTKWPAREQIFVEEI	not soluble
MQILFNDQAMQCAAGQTVHELLEQLDQRQAGAALAINQQIVPREQWAQHIVQDGDQILLFQVIAGG	soluble
MSTSTVETGYGGRIRVTVARNDRDITSEVRTFLCNKENANKIIGLDTERSVVGGDSEYPPESKLVILELSDGQNCLIIPLPYVQGNKLPVSLTNFLNLPDFTFTGVGINKALKMLKSECGLTCKNAVDIGPSSPIYEDWDNDSLTEDQINLAAANAYLAFKVGNLIREAMY	soluble
MREEVKTVIKVKTVGDVPAIVSARKSITEGKVKDAIISGYRDVKNDYMRYFGIQQAPDEGERLFIVNTLKGLGIDLPEESIVDGKFIIDRISGMDLASTDPKVACFVKIAEFYLKYYEKAKYSDSVIEDDGEIIERLTGIYNYMDITKLYFKGDDAGVGT	not soluble
MGSDKIHHHHHHMNADEFVEAFNNAKDLTELELLAELGKSISDDLEGHEKGKVLGTLGNIYYALHRLKEAEEAYLEALNVYLKLSEEDEGFLPYVVGCLYNLGNLYQVSRKFAEAEKAYTDALKVLGDVRNDQRLAILTALGTMYAKLDMKEHAERCLVEAFEMAKVKGDARLLGTLLNNLAVVYQRGGRKREAAMLLKMALDALERVGEDLGIAAVLQNLLPYLDEDELRRVMERLESFGELPIDLKAKIAYFKARRAEEKGEDSAKHYMEAACLGFMAYRNFGFQSINFMHCLDKVIESDSELREDAVVLKKVILKYYYGSQKVEIDFDSRVGRMIKAVLEGDDIYEDGILEDTVRLIAEDLLKAGTKV	not soluble
MGSDKIHHHHHHMIGICCLFIVTSCQNREPQGASIQGKDFAQSTEKSVIMVMIDSMTADLLDAAKEEGIIPGLSFLMENGTYFDELIAPFPSMSVVIESTLITGSLPDEHKVPGLVWYHAEEDRLVDYGSTPETYMKLGLNRVLFDDLSNLNNRHLSKDVPTIHEILQDSQMSTGSVNALVYRGNTSHKVNLPEPFDTWMQGQPFETKGPDLLSFGTIIEPKVIQAKELDDDHFLDLYGLNDSYGTAVVRTLIEKNEQPQFLFLFMPDFDQATHDHGQLNLEDFEKVDHAFQDILNSYDSWEQALEENIFIVIGDHGQSQIASTASDAIIPLPTLYEEYEIASLMDAPSDGEIVIANNHRMVYVYSFQPAHSFDTLANEALEDLRIQFAAYLEDDELVIKAPEHKEPLKVKKGGSWIDPYGQTWTIEGNEQIGDVFFDHDCKRIMYGENPDLFNQLFHALDSHTSTLVLTAKPGYIFESEGAPAHIGGGEHGGIHEEDTKAAMIIAGTDKAPAHLRMVDLKDFIIRLMTEEN	not soluble
MKNNNLSDARKEKGLTQQELAEKLQVRKSTVSNWETGYSSPGISTAIQTAIILDKDVSFLFGNKVQETHTRVRD	not soluble
MGSDKIHHHHHHMICEFSESVLDGIADALVDRGYICVDNLFEPEVVVRLRDKVFTKADETFKPASIGRGQEQHRNTDIRRDSIRWLEPQCAVDNQYLSLMESLKNGLNRRLFMGLFDYESHYALYRPGAFYKKHVDALKGSQNRILTTVFFMNPEWQPDHGGVLKLYEEDDSLIEELAPLMGRLVIFLSERFPHEVMPTTVDRASIAGWFRVAGSQHGF	not soluble
MKFTSATGSGSGQGSSSGTNTSAGNPDGLQADKVDQNGQVKTSVQEATSGDNLTNYTNLPPANLTPTADPNALSFTNKNNAQRAQLFLRGLLGSIPVLVNKSGQDDLEHHHHHH	not soluble
